The results in this text go back to the DeepSol protein solubility set.

A short description of the series: soluble on expression in E. coli; label from the status in PepcDB or PDB records.
With “MGILKSLFTLGKSFVAQAEEAIDEAQGVRMLEQHIRDAKAELDKAGKSRVDLLARVKLSHDKLNDLRERKASLETRALAAMSKNVDAALLNEVAEEIARLENAILAEEQVLTNLEASRDAVEKAVTATGQRIAQFEQQLEVVKATEAMQRAQQAVTTSTVGAASNVSTAAESLKRLQTRQAERQARLDAAAQLEKVADGRDLDEKLAQAGIGATNKSNAQGVLARLQRQQGELEHHHHHH”, the “soluble on expression in E. coli” value is “not soluble”.
For “MGINERLRHVIEAQKMTIKGFAETVDIPLRSVHNYLSGEREPSADALTKISNKLNINLNWLLLDQGEMYLNQSSDLTLNADEMNLLTQYRQTHDSGKRILQATSKIILDELK”, the “soluble on expression in E. coli” value is on record as “not soluble”.
Turning to “MGIVSAASLIKVINEKQLKMAQDQNPLTALPGNRAIGGFIADSCSDGDETRFFCYCDFDNFKPFNDKYGFNAGDHAITLFSALMRRYFFAGDCFLGHIGGDDFFIGVRDWSVEELMEILERLLSDFHDDVAGLYSDEDRAAGCMKGQDRNGLEHHHHHH”, the “soluble on expression in E. coli” value is “soluble”.
For the sequence “MGKEERAKWVNDEYAKAYEKMKSYGEQVKKADKPRVLYLKRSDLTLQGNDNFIKESMELAGADNIAAEAKSITMEEILKLDPEIILLSDFDKFLPQDLYENRIEGQDWSSVSAVVNKRVYKTPVGIYRWDAPGVETPLMMFWLGKMLQPEILEHHHHHH”, the “soluble on expression in E. coli” value is listed as “not soluble”.
Consider “MGKFSKIKKVQEEESAHQKMEWEAAGAKDSSSDDSSDESDNDDQPKQATEETRKRAELWTNRERVLVLCSRGADVRTRYLMKDIKDLLPHAKGDSKLDQQKSLNVLNEIAEMKNCTKVMYFESRKRKDTYLWMSNVEKGPSIKFLVHNVHTMKELKMSGNCLRASRPVLSFDDAFDKKPQLKLIKAVLMQTLGTPHHHPRSQPFVDHVFNFSVGEGDKIWFRNFQIVDESLQLQEVGPRFVLEMVRLFAGSFEGAVLYDNPNYVSPNVIRREHRKGQHSYIEKQLAVKASNIKQAKVTEILAEKTVDLVGKEFDTQNNAAADSEAAAQITAQIEKRRVRKKKSQASKYTGSD”, for which the “soluble on expression in E. coli” value is given as “soluble”.
On to “MGKILVLSDIHYPYCDIDEINKIMLSERPSLTVLLGDIIVSKSEDYRNFIDKLKIRKNIIYVKGDEDKFRGDFDLIKIKNNGKRFILLHGHQYFNENNEYSLAKVLKKMNDNIPPLLFCIFFRIMLRNFKDTIILGHSHAL”, for which the “soluble on expression in E. coli” value was “soluble”.
Regarding “MGKISIVGLGPGDYSLISQGVLESLINSPKVFFRTEKHPIIDKLKETIQYTSLDYFYEKEENFDNVYLKISEFIIEESAKGDLVYAVPGHPRVAEKTVSIIERLANEKHIAVEILPSMSFVDAMFNYLAIDPSEGFKLVDAFEIENSYIDLDTSMIITQVYDKFIASNVKLKLMEHYDYNQEVCIVNGAGVKDLESKKFIKLCELDRNENFFDYLTSLYIPKSSKKMYNTVHDLEIIVNTLRSPSGCEWDKKQTHQSLKNSVIEEAYELCNAIDNNDIDEMVEELGDVLLQVIFHCQIGNEEGYFDLKEVVNGICKKLIHRHPHIFSGAKLDMSKFEKTWEELKKEEKGESTITDGLRRIPKHLPALMKASKVQHKAALVGFDWDNVEDVFKKIEEEYQELLDEHRVGNIKYIKEELGDLLFSIVNLARFLDIDSGEALNCTTEKFINRFDFIEKSAMNLNKKLEDMTLEEMDEFWNQAKKQ”, the “soluble on expression in E. coli” value is recorded as “not soluble”.
With “MGKKDKRSKLEGDDLAEAQQKGSFQLPSSNETAKLDASQWPLLLKNYDKLNVRTNHYTPHVEGVSPLKRDIKNYISSGFFNLDKPSNPSSHEVVSWIKRILRCEKTGHSGTLDPKVSGCLIVCIDRTTRLAKSQQGAGKEYICIFKLHEEVEDDRKVKQALEKLTGALFQRPPLISAVKRQLRIRTVYENKFIEYDPAQQMGIFNCICESGTYVRTICVHLGLILGCGGQMQELRRNRSGICDENENMVTMHDVLDAQYLLDTQKDESYMRHIVRPLEALLTQHKRVVVKDSCINAICYGAKILIPGILRYDDDIEVGKEIVIMSTKGEAICIAIAQMNTSTIASVDHGVVAKSKRVIMERDVYGRKWGLGPVASKKKQMVKDGLLDKFGKPNDTTPKSWAKEYVQTSTKKEVKKEETPDEEEEEAPKKKSKKSKKQESSDSDSD”, the “soluble on expression in E. coli” value is given as “not soluble”.
For the sequence “MGKMAAAVGSVATLATEPGEDAFRKLFRFYRQSRPGTADLEGVIDFSAAHAARGKGPGAQKVIKSQLNVSSVSEQNAYRAGLQPVSKWQAYGLKGYPGFIFIPNPFLPGYQWHWVKQCLKLYSQKPNVCNLDKHMSKEETQDLWEQSKEFLRYKEATKRRPRSLLEKLRWVTVGYHYNWDSKKYSADHYTPFPSDLGFLSEQVAAACGFEDFRAEAGILNYYRLDSTLGIHVDRSELDHSKPLLSFSFGQSAIFLLGGLQRDEAPTAMFMHSGDIMIMSGFSRLLNHAVPRVLPNPEGEGLPHCLEAPLPAVLPRDSMVEPCSMEDWQVCASYLKTARVNMTVRQVLATDQNFPLEPIEDEKRDISTEGFCHLDDQNSEVKRARINPHS”, the “soluble on expression in E. coli” value is on record as “not soluble”.
Take “MGKPMQVSRYWRHFREKYRLIGGKCENGHLLFPKRPICPICGSRNIEEFQFSGKGKVITWTIVRNPPSGFEYYKPYPLALVQLEEGPVVLAQLTDVEPEEIKEGMEVEMVTRKIREFDEDGLILYGYKFRPIIKSELEHHHHHH”: the “soluble on expression in E. coli” value is “soluble”.
Next, “MGKPTGFMEYKRETPPKKDPFERSKNWQEFTLLMPESALRQQGARCMDCGVPFCQTGTSMDGSGEIGCPVYNLIPEWNDLVYRGHWKEALERLHKTNNFPEFTGRVCPAPCEGSCTVAISDDAVAIKSMEFHIVERGFQEGWIVPNPPRSRTGKKVAVVGSGPAGLAAAAQLNKAGHWVTVFEREDRIGGLLTYGIPDVKLPYHVVERRINLLKEEGIEFRTNVEIGKDVSAKQLKDDFDAVVLCTGATKPRDVNVKGRELKGIHFAMDFLTANTKSLLNSNHQDGNYISAKGKHVVVIGGGDTGADCITTSVRHGAKSITQFDINREKSNERPDNNPWPLFPIVHTVEDGHKEAAAVYGKDPRAYQVMTTKFVGDAEGHVKEIHTISVETTVHPDGSKTRVEIPGTEKVWPADLVFLAVGFTGPEEQLVRELELETDTRSNIKAEYGKYETSLEGVFAAGDNRRGQSLVVWAIHEGREAARECDKYLMGASNLPLEHHHHHH”: “soluble”.
Consider “MGKRVVYPGTFDPPHYGHLDIVKRSARIFDEVVVAVAKKPRKFLLFDAEERVKMFEKMVEDIPNVEVKMFDCLLVDFMKREGINVIVRGVRLFTDFEYELQIALTNYKLAGVETVFMMPSQEYIHISSTIVRDVASYCGDLDNMVHPYVKQKLREKFNCGS”, for which the “soluble on expression in E. coli” value is reported as “soluble”.
Take “MGKTIAEKIFASHLVDEPFAGTKVLRLDVVMCHEITTPIAIADLMARGKDRVFDPTKIKAVIDHVTPSKDSKTATQAKMLRDWARRHGIVDFFDVGANGVCHALFPEKGFIRPGYTVIMGDSHTCTHGAFGAFAAGIGTTDLEVGILKGVCAFREPKT”: the “soluble on expression in E. coli” value is listed as “not soluble”.
As for “MGKTSQRKQCDCENPSKPCLSTSIPLRMSSYTFKRPVTKITSHLGNEVRYYQWEETFKKPEQACWQKRLQGLQAYSSAGELLSTSDLAKTLKDLTSTDTVASASDTQATSIDITSVPTLESSSHLANMIPEAGPQILCKEFLVTEQDIINQERKVKIARERLAVALIAHKLASEMETVRGSRKANL”, the “soluble on expression in E. coli” value is listed as “not soluble”.
On to “MGLCVSKGSTASSPQHYAVRYTEQVTPSPSPSVASTSPSLHDSTAIGSPLARRSVLLPHEVQQAAYQLAMRLNGRAIEDASDRKRLVDATATVHETRLALHRGRGKVDSDLRLSNGRSATYSSLSYCLGEDDENLLAGSALAAGAGNCDHNAAINTRRHAVRMEDGGQMMTVRDYEQTHLYALYQPPNSAEADESTVVLDSWGDGPAVLLRDSHWAESYGTSTHVIERFDKPDATDALARTNAFRAEIENPQTALHANARELETAFLANPAPGDIFSAMPVIAPHLAESTRRRLQECSPRTRNVLAADAARDAYGLDDAQANSPRTTKAILKEAKRLDALGRPPLSW”, for which the “soluble on expression in E. coli” value is given as “not soluble”.
Take “MGLCVSKPSVAGSPEHYAAHVAEQATPSEEGSGTPAQATSSYSATDPALQGLARRGKKVDLSRSGLPERVALKTKLLANSLSDAKDAGVRSSIVKYGERTLKMLAANKQPDEALLKLDIKNLPALASVYNRRYPGLNIQHFDSPIDFLQSLSEQTTSVVSQRAVLRLERDGEHHVAADVRRRPNGEASVIVLEPARLLTFVTGHTQLRRQALSQLGENAKFAFIQVGAQKSAADCLMFDLHFALHAHQHSSLFDQWHDNMVNHGTIDPYGQGAASPDALLEDAGVELMLGEQMLPAIFYKHTHSSGVVEEVDRSQPGSAYTDVSTSGRQQQHESLEQRVQAFRVDRGYSASIETSRATKIRSALETAISDRQS”: the “soluble on expression in E. coli” value was “not soluble”.
Next, “MGLFNNFKFKYTRAQLEIFRFSFCLLAPVAVMYYIGTDTDKKLNVPGFWPDPATLNQIPKEPYEIKAELARMKKERLEKRLRLEKKIQEEFGLDLEEEKEKIKRDLALKKG”: “soluble”.
The result for “MGLGRQSLNIMTFSGQELTAIIKMAKSMVMADGKIKPAEIAVMTREFMRFGILQDQVDLLLKASDSIEASQAVALIARMDEERKKYVASYLGVIMASDGDIDDNELALWTLISTLCGLPTMTVMEAINNMKNL” reads “soluble”; that for “MGLIFAKLWSLFCNQEHKVIIVGLDNAGKTTILYQFLMNEVVHTSPTIGSNVEEIVVKNTHFLMWDIGGQESLRSSWNTYYSNTEFIILVVDSIDRERLAITKEELYRMLAHEDLRKAAVLIFANKQDMKGCMTAAEISKYLTLSSIKDHPWHIQSCCALTGEGLCQGLEWMTSRIGVR”, “soluble”; that for “MGLREIEKVTVFCLANENTDISYEVNRALGEIRIYVPYDFMDFLALNSVEEKYKEFCKLVRQYVVPGLEENSTLSSSVVKGYIEESLDEIVKQNYEGIFLVGKTPKKSPSRKKIAILKGIHRVKGFQLRCEVYDEKGLKIRDQLLVEEVGNEMVYSRFLGTLKWESENLIVVQSKSSSWKEEIYL”, “not soluble”.
As for “MGLRFPPKVLEHILSFIDSNEDRNSVSLVCKSWFETERKTRKRVFVGNCYAVSPAAVTRRFPEMRSLTLKGKPHFADYNLVPDGWGGYAWPWIEAMAAKSSSLEEIRMKRMVVTDECLEKIAASFKDFKVLVLTSCEGFSTDGIAAIAATCRNLRVLELRECIVEDLGGDWLSYFPESSTSLVSLDFSCLDSEVKISDLERLVSRSPNLKSLKLNPAVTLDGLVSLLRCAPQLTELGTGSFAAQLKPEAFSKLSEAFSNCKQLQSLSGLWDVLPEYLPALYSVCPGLTSLNLSYATVRMPDLVELLRRCSKLQKLWVMDLIEDKGLEAVASYCKELRELRVFPSEPDLDATNIPLTEQGLVFVSKGCRKLESVLYFCVQFTNAALFTIARKRPNLKCFRLCVIEPFAPDYKTNEPLDKGFKAIAEGCRDLRRLSVSGLLSDKAFKYIGKHAKKVRMLSIAFAGDSDLMLHHLLSGCESLKKLEIRDCPFGDTALLEHAAKLETMRSLWMSSCFVSFGACKLLSQKMPRLNVEVIDEHPPESRPESSPVERIYIYRTVAGPRMDTPEFVWTIHKNPENGVSHLAIK”, the “soluble on expression in E. coli” value is given as “not soluble”.
In the case of “MGNCESRELVAQAKQNKIINTELDKAKKTDENIIKLLLLGAGESGKSTVLKQMKIIHNSGFSQEEISNKRNVVCANTVQAMGALLDGMKQLQFDFSTRVCNAHEKLIRETLNDKAEYGPFSDAMFNALTELWADKGVQCAYDKREFFYLHDSAKYFFDAIARVHTPNYVPTENDILHTRVPTMGVIEVNFTIKGKFFRVFDVGGQRSQRKKWIHCFDDAKAMIYVASLSEYDQVLLEDNTTNRMHESIQLFKQVINNKYFVNTSVILFLNKIDLFEEKIVTKKRSLGIAFESFSGPSQDLNAAVAFVEKKYRSMAENKEKNIYCHHTCATDTQQVQYVLDAVLDTILSTKLKGCGLY”, the “soluble on expression in E. coli” value is given as “not soluble”.
